The supplement of paper PMC10567573

B1: TFE3 (parent)
chain: FHLGLEDILMEEEEGVVGGLSGGA

Variants of: B1
Experiment: protein stability index of a GFP-peptide fusion (GPS, HEK-293T) (PSI 1-6); higher = more stable
Settings: c terminus: a fixed tail appended
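Note: lentivirally expressed fusions sorted by FACS into six bins by GFP to DsRed ratio, PSI derived from sequencing read proportions per bin multiplied by bin number.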

Compared with FHLGLEDILMWEEEGVVGGLSGGA [E11W], FHLKLEDILMEEEEGVVGGLSGGA [G4K] is lower in protein stability index: 2.57 for the first, 2.23 for the second.

Going from FHLMLEDILMEEEEGVVGGLSGGA [G4M] to FHLSLEDILMEEEEGVVGGLSGGA [G4S], the protein stability index rises from 2.5 to 3.94.

Going from FHLTLEDILMEEEEGVVGGLSGGA [G4T] to FHLGLEDILMEEEEGVVGSLSGGA [G19S], the protein stability index rises from 3.08 to 3.28.

Going from FHLGLEDILMEEEEGVVGFLSGGA [G19F] to FHLGLEDILMEEEEGVVGELSGGA [G19E], the protein stability index rises from 2.69 to 4.32.

Going from FHLGLEDILMEEEEGVVGMLSGGA [G19M] to FHLGLEDILMEEEEGVVGALSGGA [G19A], the protein stability index rises from 3.71 to 3.97.

First: FHLGLEDILMEEEEGVVGGLMGGA [S21M]
Second: FHLGLEDILMEEEEGVVGGLLGGA [S21L]
The protein stability index of the first is higher: 3.54 for the first, 3.01 for the second.

Going from FHLGLEDILMEEEEGVVGGLHGGA [S21H] to FHLGLEDILMEEEEGVVGGLYGGA [S21Y], the protein stability index falls from 3.44 to 2.77.

Going from FHLGLEDILMEEEEGVVGGLEGGA [S21E] to FHLGLEDILMEEEEGVVGGLRGGA [S21R], the protein stability index falls from 4.65 to 3.7.

First: FHLGLEDILMEEEEGVNGGLSGGA [V17N]
Second: FHLGLEDILMEEEEGVDGGLSGGA [V17D]
The protein stability index of the first is higher: 4.76 for the first, 4.44 for the second.

First: FHLGLEDILMEEEEGVMGGLSGGA [V17M]
Second: FHLGLEDILMEEEEGVHGGLSGGA [V17H]
The protein stability index of the first is lower: 3.46 for the first, 3.7 for the second.

Going from FHLGLEDILMEEEEGVVGGLSGGG [A24G] to FHLGLEDILMEEEEGVVGGLSGGL [A24L], the protein stability index falls from 4.32 to 2.94.

Compared with FHLGLEDILMEEEEGVVGGLSGGV [A24V], FHLGLEDILMEEEEGVVGGLSGGI [A24I] is lower in protein stability index: 3.74 for the first, 2.66 for the second.

First: FHLGLEDILMEEEEGVVGGLSGGM [A24M]
Second: FHLGLEDILMEEEEGVVGGLSGGN [A24N]
The protein stability index of the first is lower: 3.12 for the first, 3.65 for the second.

Compared with FHLGLEDILMEEEEGVVGGLSGGK [A24K], FHLGLEDILMEEEEGVVGGLSGGF [A24F] is lower in protein stability index: 3.98 for the first, 2.39 for the second.

Going from FHLGLEDILMEEEEGVVGGLSGGH [A24H] to FHLGLEDILMEEEEGVVGGLSGGY [A24Y], the protein stability index falls from 3.25 to 2.68.

Compared with FHLGLEDILMEEEEGVVGGLSGGP [A24P], FHLGREDILMEEEEGVVGGLSGGA [L5R] is higher in protein stability index: 3.07 for the first, 4.04 for the second.

First: FHLGDEDILMEEEEGVVGGLSGGA [L5D]
Second: FHLGYEDILMEEEEGVVGGLSGGA [L5Y]
The protein stability index of the first is higher: 4.38 for the first, 3.21 for the second.

Compared with FHLGGEDILMEEEEGVVGGLSGGA [L5G], FHLGHEDILMEEEEGVVGGLSGGA [L5H] is lower in protein stability index: 4.52 for the first, 3.91 for the second.

First: FHLGFEDILMEEEEGVVGGLSGGA [L5F]
Second: FHLGLEDILMEEEEGVVGGLSGEA [G23E]
The protein stability index of the first is lower: 3.16 for the first, 4.87 for the second.

Going from FHLGLEDILMEEEEGVVGGLSGKA [G23K] to FHLGLEDILMEEEEGVVGGLSGIA [G23I], the protein stability index falls from 3.89 to 3.17.

First: FHLGLEDILMEEEEGVVGGLSGAA [G23A]
Second: FHLGLEDILMEEEEGVVGGLSGSA [G23S]
The protein stability index of the first is lower: 3.37 for the first, 3.52 for the second.

Going from FHLGLEDILMEEEEGVVGGLSGLA [G23L] to FHLGLEDILMEEEEGVVGGLSGQA [G23Q], the protein stability index rises from 3.58 to 3.89.

Compared with FHLGLRDILMEEEEGVVGGLSGGA [E6R], FHLGLMDILMEEEEGVVGGLSGGA [E6M] is lower in protein stability index: 3.3 for the first, 1.93 for the second.

Going from FHLGLADILMEEEEGVVGGLSGGA [E6A] to FHLGLDDILMEEEEGVVGGLSGGA [E6D], the protein stability index rises from 2.67 to 3.58.

Compared with FHLGLWDILMEEEEGVVGGLSGGA [E6W], FHLGLYDILMEEEEGVVGGLSGGA [E6Y] is higher in protein stability index: 2.02 for the first, 2.31 for the second.

Compared with FHLGLFDILMEEEEGVVGGLSGGA [E6F], FHLGLTDILMEEEEGVVGGLSGGA [E6T] is higher in protein stability index: 2.33 for the first, 3.04 for the second.

Compared with FHLGLEDILMEEEEGVVGGLSKGA [G22K], FHLGLEDILMEEEEGVVGGLSAGA [G22A] is lower in protein stability index: 4.05 for the first, 3.81 for the second.

First: FHLGLEDILMEEEEGVVGGLSDGA [G22D]
Second: FHLGLEDILMEEEEGVVGGLSFGA [G22F]
The protein stability index of the first is higher: 3.5 for the first, 3.34 for the second.

Going from FHLGLEDILMEEEEGVVGGLSRGA [G22R] to FHLGLEDILMEEEEGVVGGLSPGA [G22P], the protein stability index rises from 3.39 to 3.64.

Compared with FHLGLEDILMEIEEGVVGGLSGGA [E12I], FHLGLEDILMEYEEGVVGGLSGGA [E12Y] is higher in protein stability index: 2.51 for the first, 2.63 for the second.

First: FHLGLEDILMETEEGVVGGLSGGA [E12T]
Second: FHLGLEDILMEKEEGVVGGLSGGA [E12K]
The protein stability index of the first is higher: 3.72 for the first, 3.2 for the second.

First: FHLGLEDILMEGEEGVVGGLSGGA [E12G]
Second: FHLGLEDILMEQEEGVVGGLSGGA [E12Q]
The protein stability index of the first is lower: 3.02 for the first, 3.47 for the second.

First: FHLGLEDILMEEQEGVVGGLSGGA [E13Q]
Second: FHLGLEDILMEESEGVVGGLSGGA [E13S]
The protein stability index of the first is higher: 3.4 for the first, 3.34 for the second.

Going from FHLGLEDILMEEVEGVVGGLSGGA [E13V] to FHLGLEDILMEEFEGVVGGLSGGA [E13F], the protein stability index falls from 2.46 to 1.84.

Compared with FHLGLEDILMEELEGVVGGLSGGA [E13L], FHLGLEDILMEEDEGVVGGLSGGA [E13D] is higher in protein stability index: 2.37 for the first, 3.3 for the second.

Going from FHLGLEDILMEETEGVVGGLSGGA [E13T] to FHLGLEDILMEEMEGVVGGLSGGA [E13M], the protein stability index falls from 3.34 to 2.15.

First: FHLGLEDILMEEKEGVVGGLSGGA [E13K]
Second: FHLGLEDILMEEREGVVGGLSGGA [E13R]
The protein stability index of the first is higher: 3.41 for the first, 3.1 for the second.

Going from FHLGLEDILMEEGEGVVGGLSGGA [E13G] to FHLGLEDILMEEEEGVVGGNSGGA [L20N], the protein stability index rises from 2.58 to 4.59.

Going from FHLGLEDILMEEEEGVVGGSSGGA [L20S] to FHLGLEDILMEEEEGVVGGISGGA [L20I], the protein stability index falls from 4.52 to 4.08.

First: FHLGLEDILMEEEEGVVGGTSGGA [L20T]
Second: FHLGLEDILMEEEEGVVGGFSGGA [L20F]
The protein stability index of the first is higher: 4.11 for the first, 4.09 for the second.

First: FHLGLEDILMEEEEGVVGGMSGGA [L20M]
Second: FHLGLEDILMEEEEGVVGGRSGGA [L20R]
The protein stability index of the first is lower: 3.19 for the first, 3.99 for the second.

First: FHLGLEDILMEEEEGVVGGASGGA [L20A]
Second: FHLGLEDILMEEEPGVVGGLSGGA [E14P]
The protein stability index of the first is higher: 4.74 for the first, 3.53 for the second.

First: FHLGLEDILMEEETGVVGGLSGGA [E14T]
Second: FHLGLEDILMEEEMGVVGGLSGGA [E14M]
The protein stability index of the first is higher: 3.25 for the first, 2.27 for the second.

Compared with FHLGLEDILMEEEVGVVGGLSGGA [E14V], FHLGLEDILMEEESGVVGGLSGGA [E14S] is higher in protein stability index: 2.53 for the first, 2.83 for the second.

Going from FHLGLEDILMEEEYGVVGGLSGGA [E14Y] to GHLGLEDILMEEEEGVVGGLSGGA [F1G], the protein stability index rises from 2.39 to 4.95.

Going from EHLGLEDILMEEEEGVVGGLSGGA [F1E] to QHLGLEDILMEEEEGVVGGLSGGA [F1Q], the protein stability index rises from 4.53 to 5.15.

Going from WHLGLEDILMEEEEGVVGGLSGGA [F1W] to THLGLEDILMEEEEGVVGGLSGGA [F1T], the protein stability index falls from 4.09 to 4.02.
